Source: paper doi:10.1101/589580

Biological target: T1, endogenous ZO1 with N-terminal mNeonGreen (CRISPR knock-in, MDCK-II) (dog (endogenous in MDCK-II)), O97758
T1 chain: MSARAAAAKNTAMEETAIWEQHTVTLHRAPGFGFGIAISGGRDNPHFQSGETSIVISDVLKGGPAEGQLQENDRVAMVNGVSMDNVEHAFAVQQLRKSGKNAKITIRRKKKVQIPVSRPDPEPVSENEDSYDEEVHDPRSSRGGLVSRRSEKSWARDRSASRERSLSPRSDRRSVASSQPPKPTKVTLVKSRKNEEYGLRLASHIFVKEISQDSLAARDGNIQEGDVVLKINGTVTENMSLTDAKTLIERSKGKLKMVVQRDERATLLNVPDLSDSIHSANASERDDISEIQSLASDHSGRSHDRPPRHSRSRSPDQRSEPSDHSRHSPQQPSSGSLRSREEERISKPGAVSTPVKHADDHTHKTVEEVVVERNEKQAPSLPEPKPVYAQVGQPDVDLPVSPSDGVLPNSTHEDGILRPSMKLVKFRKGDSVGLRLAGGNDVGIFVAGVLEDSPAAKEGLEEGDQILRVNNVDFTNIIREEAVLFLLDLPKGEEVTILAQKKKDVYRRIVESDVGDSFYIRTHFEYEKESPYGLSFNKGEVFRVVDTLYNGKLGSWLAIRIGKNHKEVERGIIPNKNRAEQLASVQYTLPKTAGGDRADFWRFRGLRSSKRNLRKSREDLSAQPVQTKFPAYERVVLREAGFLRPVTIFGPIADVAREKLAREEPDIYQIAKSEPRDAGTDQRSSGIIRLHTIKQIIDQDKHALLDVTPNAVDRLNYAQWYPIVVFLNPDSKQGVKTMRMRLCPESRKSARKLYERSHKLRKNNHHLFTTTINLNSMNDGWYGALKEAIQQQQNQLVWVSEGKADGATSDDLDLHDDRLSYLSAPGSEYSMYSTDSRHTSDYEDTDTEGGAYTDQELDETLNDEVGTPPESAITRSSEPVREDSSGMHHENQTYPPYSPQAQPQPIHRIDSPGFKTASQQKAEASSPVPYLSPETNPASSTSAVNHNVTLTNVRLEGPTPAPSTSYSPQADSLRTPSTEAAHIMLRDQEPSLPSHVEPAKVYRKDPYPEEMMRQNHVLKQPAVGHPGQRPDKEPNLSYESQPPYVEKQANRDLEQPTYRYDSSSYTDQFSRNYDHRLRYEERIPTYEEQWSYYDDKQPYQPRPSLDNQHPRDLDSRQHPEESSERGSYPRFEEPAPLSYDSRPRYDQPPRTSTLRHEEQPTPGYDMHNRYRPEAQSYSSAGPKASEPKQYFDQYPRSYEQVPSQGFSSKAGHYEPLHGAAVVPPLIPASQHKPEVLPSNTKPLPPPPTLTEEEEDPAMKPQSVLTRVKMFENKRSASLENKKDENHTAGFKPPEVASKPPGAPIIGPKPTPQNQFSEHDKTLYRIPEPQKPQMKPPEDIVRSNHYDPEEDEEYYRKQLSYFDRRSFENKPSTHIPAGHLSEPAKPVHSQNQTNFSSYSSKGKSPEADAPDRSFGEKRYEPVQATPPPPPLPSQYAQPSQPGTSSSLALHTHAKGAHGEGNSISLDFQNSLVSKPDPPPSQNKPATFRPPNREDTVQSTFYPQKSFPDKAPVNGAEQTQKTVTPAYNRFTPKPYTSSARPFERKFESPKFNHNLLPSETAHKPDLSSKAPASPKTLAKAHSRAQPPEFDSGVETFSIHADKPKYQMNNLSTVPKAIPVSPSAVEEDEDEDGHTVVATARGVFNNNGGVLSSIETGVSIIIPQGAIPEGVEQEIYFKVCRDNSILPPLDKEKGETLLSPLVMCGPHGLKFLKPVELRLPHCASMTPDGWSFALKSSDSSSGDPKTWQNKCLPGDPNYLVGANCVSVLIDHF
Assay: FCS molecular brightness
Conditions: remark: other sources report otherwise

- stoichiometry N: 5
B1: endogenous ZO1 with N-terminal mNeonGreen (CRISPR knock-in, MDCK-II), O97758 1-1769 (natural protein)
chain: MSARAAAAKNTAMEETAIWEQHTVTLHRAPGFGFGIAISGGRDNPHFQSGETSIVISDVLKGGPAEGQLQENDRVAMVNGVSMDNVEHAFAVQQLRKSGKNAKITIRRKKKVQIPVSRPDPEPVSENEDSYDEEVHDPRSSRGGLVSRRSEKSWARDRSASRERSLSPRSDRRSVASSQPPKPTKVTLVKSRKNEEYGLRLASHIFVKEISQDSLAARDGNIQEGDVVLKINGTVTENMSLTDAKTLIERSKGKLKMVVQRDERATLLNVPDLSDSIHSANASERDDISEIQSLASDHSGRSHDRPPRHSRSRSPDQRSEPSDHSRHSPQQPSSGSLRSREEERISKPGAVSTPVKHADDHTHKTVEEVVVERNEKQAPSLPEPKPVYAQVGQPDVDLPVSPSDGVLPNSTHEDGILRPSMKLVKFRKGDSVGLRLAGGNDVGIFVAGVLEDSPAAKEGLEEGDQILRVNNVDFTNIIREEAVLFLLDLPKGEEVTILAQKKKDVYRRIVESDVGDSFYIRTHFEYEKESPYGLSFNKGEVFRVVDTLYNGKLGSWLAIRIGKNHKEVERGIIPNKNRAEQLASVQYTLPKTAGGDRADFWRFRGLRSSKRNLRKSREDLSAQPVQTKFPAYERVVLREAGFLRPVTIFGPIADVAREKLAREEPDIYQIAKSEPRDAGTDQRSSGIIRLHTIKQIIDQDKHALLDVTPNAVDRLNYAQWYPIVVFLNPDSKQGVKTMRMRLCPESRKSARKLYERSHKLRKNNHHLFTTTINLNSMNDGWYGALKEAIQQQQNQLVWVSEGKADGATSDDLDLHDDRLSYLSAPGSEYSMYSTDSRHTSDYEDTDTEGGAYTDQELDETLNDEVGTPPESAITRSSEPVREDSSGMHHENQTYPPYSPQAQPQPIHRIDSPGFKTASQQKAEASSPVPYLSPETNPASSTSAVNHNVTLTNVRLEGPTPAPSTSYSPQADSLRTPSTEAAHIMLRDQEPSLPSHVEPAKVYRKDPYPEEMMRQNHVLKQPAVGHPGQRPDKEPNLSYESQPPYVEKQANRDLEQPTYRYDSSSYTDQFSRNYDHRLRYEERIPTYEEQWSYYDDKQPYQPRPSLDNQHPRDLDSRQHPEESSERGSYPRFEEPAPLSYDSRPRYDQPPRTSTLRHEEQPTPGYDMHNRYRPEAQSYSSAGPKASEPKQYFDQYPRSYEQVPSQGFSSKAGHYEPLHGAAVVPPLIPASQHKPEVLPSNTKPLPPPPTLTEEEEDPAMKPQSVLTRVKMFENKRSASLENKKDENHTAGFKPPEVASKPPGAPIIGPKPTPQNQFSEHDKTLYRIPEPQKPQMKPPEDIVRSNHYDPEEDEEYYRKQLSYFDRRSFENKPSTHIPAGHLSEPAKPVHSQNQTNFSSYSSKGKSPEADAPDRSFGEKRYEPVQATPPPPPLPSQYAQPSQPGTSSSLALHTHAKGAHGEGNSISLDFQNSLVSKPDPPPSQNKPATFRPPNREDTVQSTFYPQKSFPDKAPVNGAEQTQKTVTPAYNRFTPKPYTSSARPFERKFESPKFNHNLLPSETAHKPDLSSKAPASPKTLAKAHSRAQPPEFDSGVETFSIHADKPKYQMNNLSTVPKAIPVSPSAVEEDEDEDGHTVVATARGVFNNNGGVLSSIETGVSIIIPQGAIPEGVEQEIYFKVCRDNSILPPLDKEKGETLLSPLVMCGPHGLKFLKPVELRLPHCASMTPDGWSFALKSSDSSSGDPKTWQNKCLPGDPNYLVGANCVSVLIDHF
